Data published in patent publication US20260070974A1 (NONA BIOSCIENCES SUZHOU, published 2026).
Numbering of substitutions follows the chain as printed.

T1: human Siglec-15 on CHO-K1/human Siglec-15 cells (KYinno, Beijing) (human, UniProt Q6ZMC9 20-328)
T1 sequence: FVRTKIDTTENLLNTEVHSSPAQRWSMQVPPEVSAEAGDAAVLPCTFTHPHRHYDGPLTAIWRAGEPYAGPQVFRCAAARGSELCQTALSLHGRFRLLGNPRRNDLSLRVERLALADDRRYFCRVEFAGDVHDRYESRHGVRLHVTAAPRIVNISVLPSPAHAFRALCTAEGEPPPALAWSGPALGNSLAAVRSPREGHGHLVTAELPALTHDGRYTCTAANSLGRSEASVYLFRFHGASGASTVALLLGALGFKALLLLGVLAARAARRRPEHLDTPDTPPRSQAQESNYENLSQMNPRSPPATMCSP

T2: human Siglec-15 ECD-his protein (Acrobiosystems, Cat #: SG5-H52H3) (human, UniProt Q6ZMC9 20-263)
T2 construct: Bought protein; only its extracellular domain stood in the assay; also called human Siglec-15 protein; recombinant human Siglec-15 protein; not shown: his tag
T2 sequence: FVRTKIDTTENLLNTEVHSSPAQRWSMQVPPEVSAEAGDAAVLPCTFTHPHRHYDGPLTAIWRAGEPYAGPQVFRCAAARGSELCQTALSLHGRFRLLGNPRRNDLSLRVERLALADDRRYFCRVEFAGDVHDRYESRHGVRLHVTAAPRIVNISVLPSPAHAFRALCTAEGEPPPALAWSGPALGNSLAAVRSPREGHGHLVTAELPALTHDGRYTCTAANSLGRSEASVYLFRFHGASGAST

T3: cynomolgus monkey Siglec-15 on CHO-K1/cynomolgus monkey Siglec-15 cells (cynomolgus monkey, UniProt Q6ZMC9 20-328 (human entry))
T3 chain: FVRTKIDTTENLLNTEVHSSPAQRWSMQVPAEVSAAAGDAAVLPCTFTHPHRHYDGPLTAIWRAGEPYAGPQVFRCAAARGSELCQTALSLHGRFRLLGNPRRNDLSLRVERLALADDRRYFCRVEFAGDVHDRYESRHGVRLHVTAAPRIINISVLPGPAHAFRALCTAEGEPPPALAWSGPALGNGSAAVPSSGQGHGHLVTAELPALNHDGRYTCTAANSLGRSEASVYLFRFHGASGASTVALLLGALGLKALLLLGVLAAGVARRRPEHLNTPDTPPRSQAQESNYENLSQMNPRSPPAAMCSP

B1: PR300679 (antibody, human IgG1, kappa, V domains shown)
VH: QVQLQESGPGLVKPSGTLSLTCAVSGGSISSSNWWSWVRQPPGKGLEWIGEIYHSGSTNYNPSLKSRVTISVDKSKNQFSLKLSSVTAADTAVYYCAREYSSSWLSVMDAWGQGASVTVSS
VL: not shown
B2: PR301286-5 (antibody, human IgG1, kappa, V domains shown)
VH: QVQLVESGGGVVQPGKSLRLSCAASGFTFSSYGMHWVRQAPGKGLEWVAVIWIDASNRYYAASVKGRFTISRDNSKNTLYLQMNSLRAEDTAVYYCTRGYGDYAYVMDVWGQGASVTVSS
VL: DIVMTQSPLSLPVTPGEPASISCRSSQSLLPGSGYNYLDWYLQKPGQSPQLLIYLGSNRASGVPDRFSGSGSGTDFTLKISRVEAEDVGIYYCMQALQSPLTFGGGTKVEIKR
notes: PTM variant of PR301286: VH(HCDR2) G/A; VL(LCDR1) N/S; human IgG1/kappa
B3: PR301289-2 (antibody, human IgG1, kappa, V domains shown)
VH: QVQLVQSGAEVKKPGASVKVSCRASGYTFTSYDINWVRQATGQGLEWMGWMNPHSGDTGYAQNFQGRVTMTWQTSISTAYMELSSLRSEDTAVYYCARRRVGVYYHGMDVWGQGTTVTVSS
VL: ENVLTQSPGTLSLSPGERATLSCRASQSVSSSYFGWYQQKPGQAPRLLIYGASSRATGIPDRFSGSGSGTDFTLTISRLEPEDFAVYYCQQYGSSPITFGQGTRLEIKR
notes: PTM variant of PR301289: HFR3 N/Q; CDRH3 YYY/YYH; human IgG1/kappa
B4: PR301286-1 (antibody, human IgG1, kappa, V domains shown)
VH: B2 VH
VL: B2 VL with S33N
notes: PTM variant of PR301286: VH(HCDR2) G/A; human IgG1/kappa
B5: PR301286-3 (antibody, human IgG1, kappa, V domains shown)
VH: B2 VH with A55V
VL: B2 VL with S33N
notes: PTM variant of PR301286: VH(HCDR2) G/V; human IgG1/kappa
B6: PR301286-6 (antibody, human IgG1, kappa, V domains shown)
VH: B2 VH
VL: B2 VL with S33N, G34A
notes: PTM variant of PR301286: VH(HCDR2) G/A; VL(LCDR1) G/A; human IgG1/kappa
B7: PR301286-7 (antibody, human IgG1, kappa, V domains shown)
VH: B2 VH
VL: B2 VL with S33N, G34T
notes: PTM variant of PR301286: VH(HCDR2) G/A; VL(LCDR1) G/T; human IgG1/kappa
B8: PR301289-1 (antibody, human IgG1, kappa, V domains shown)
VH: B3 VH with H106Y
VL: B3 VL
notes: PTM variant of PR301289: HFR3 N/Q; human IgG1/kappa

target: T1, human Siglec-15 on CHO-K1/human …; assay: flow cytometry on CHO-K1/human Siglec-15 cells
Description: (§1) CHO-K1/human Siglec-15 cells (KYinno, Beijing) were adjusted to a density of 1×10⁶/mL with PBS, and the cell suspension was added to a 96-well V-bottom plate at 100 μL/well. The 96-well V-bottom plate was centrifuged at 1000 rpm for 5 min and washed once with PBS+2% FBS. The cells were resuspended in 100 L of antibody diluted in a gradient (5-fold dilution, starting concentration: 500 nM) and incubated at 4° C. for 1 h, and PR300066 and hIgG1 were used as positive control and negative control, respectively. After 1 h, the cells were washed twice with PBS+2% FBS. The cells were incubated with 100 μL of Alexa Fluor 488 goat anti-human IgG (Jackson, Cat #: 109-545-098) at 4° C. for 1 h in the dark and then washed twice with PBS+2% FBS. The cells were then resuspended in 200 μL of PBS+2% FBS. The fluorescence intensity of the cells was analyzed using a BD FACSCanto™ II flow cytometer.

Row | EC50 [nM] | Maximum (MFI) | Binder
1 | 1.03 | 25300 | B1
2 | 1.81 | 24400 | B2
3 | 1.26 | 28800 | B3

target: T2, human Siglec-15 ECD-his protein …; assay: ELISA, coated human Siglec-15 ECD-his
Description: […] human Siglec-15 ECD-his protein (Acrobiosystems, Cat #: SG5-H52H3) dissolved in PBS was added to an ELISA plate at 100 μL/well for coating and the plate was incubated overnight at 4° C. The ELISA plate was then blocked with PBST (PBS+0.05% Tween 20) containing 2% BSA at 200 μL/well and incubated at 37° C. for 1 h. The ELISA plate was washed 4 times with PBST. The anti-Siglec-15 antibody diluted in a gradient (5-fold dilution, starting concentration: 6.67 nM) was added to the ELISA plate at 100 μL/well and the plate was incubated at 37° C. for 1 h. The ELISA plate was washed 4 times with PBST. The goat anti-human IgG (H+L)-HRP (1:5000, Jackson, Cat #: 109-035-088) was added at 100 μL/well and the plate was incubated at 37° C. for 1 h. The ELISA plate was washed 4 times with PBST. The TMB substrate (Biopanda, Cat #: TMB-S-003) was added at 100 μL/well, and the plate was incubated at room temperature for 5 min, and then the stop buffer (Solarbio, Cat #: C1058) was added at 100 μL/well to stop the reaction.

Row | EC50 [nM] | Binder
4 | 0.019 | B4
5 | 0.019 | B5
6 | 0.029 | B6
7 | 0.02 | B2
8 | 0.025 | B7
9 | 0.02 | B8
10 | 0.029 | B3

Target: T3, cynomolgus monkey Siglec-15 on …
Assay: flow cytometry on CHO-K1/cynomolgus monkey Siglec-15 cells
Description: as §1, with “cDNAs encoding cynomolgus monkey Siglec-15 (the amino acid sequence of which is set forth in SEQ ID NO: 155) were obtained by gene synthesis and cloned into the expression vector pcDNA3.1, and then the expression vector was transfected into CHO-K1 cells to construct CHO-K1/cynomolgus monkey Siglec-15” for “CHO-K1/human Siglec-15”, “cells expressing cynomolgus monkey Siglec-15. CHO-K1/cynomolgus monkey Siglec-15 cells” for “cells (KYinno, Beijing)”, “100 µL/well.” for “100 μL/well.”, “100 μL” for “100 L”, “BD FACS Canto™” for “BD FACSCanto™”

Row | EC50 [nM] | Maximum (MFI) | Binder
11 | 5.26 | 4280 | B2
12 | 1.34 | 4420 | B3

target: T2, human Siglec-15 ECD-his protein …; assay: BLI (Octet RED96), antibody on AHC sensor, Siglec-15 ECD-his as analyte
Description: Recombinant Human Siglec-15 Protein Affinity was determined using an Octet RED96 instrument (ForteBio) and an anti-human IgG Fc capture sensor (AHC biosensor, ForteBio, Cat #: 18-5060) according to the detailed procedures and methods provided by the manufacturer. Specifically, candidate antibodies were each diluted to a final concentration of 6 µg/mL and directly immobilized on AHC biosensors for kinetic measurements. The antigenic protein Siglec-15 ECD-his protein (Acrobiosystems, Cat #: SG5-H52H3) was diluted with 10× Kinetics buffer to 3 concentrations of 60 nM, 30 nM, and 15 nM separately and injected as the analyte for 120 s with a dissociation time of 400 s and then subjected to regeneration with 10 mM glycine HCl (pH 1.5) for 15 s. The association rate (kon) and dissociation rate (kdis) were calculated using a simple one-to-one Languir binding model (Octet Red96 data analysis software). The equilibrium dissociation constant (kD) was calculated as the ratio of kdis/kon.

Row | Kd [nM] | koff [s⁻¹] | kon [M⁻¹ s⁻¹] | Binder
13 | 0.106 | 0.000102 | 968000 | B1
14 | 0.0162 | 3.85e-06 | 238000 | B4
15 | 0.195 | 6.44e-05 | 330000 | B5
16 | 0.279 | 0.000107 | 384000 | B6
17 | 0.137 | 4.93e-05 | 360000 | B2
18 | 0.361 | 0.000137 | 379000 | B7
19 | 0.116 | 3.89e-05 | 337000 | B8
20 | 0.19 | 5.96e-05 | 314000 | B3
